Assay results taken from patent publication US20250368686A1, “PEPTIDE DRUGS FOR S[…] D[…] BLOCKING HOMO- AND HETERO-DIMERIZATION OF OPIOID RECEPTORS” (OKINAWA INSTITUTE OF SCIENCE AND TECHNOLOGY SCHOOL …, priority 2022, published 2025).
Values belong to the substance of their own block, whether it stands above or below them.

Assays:
[1] = target: µ-type opioid receptor (MOR), rat, wild type, fluorescently tagged, expressed in the PM of CHO-K1 cells (Example 1) (rat) (UniProt P33535); experiment: distribution of colocalisation durations with WT-MOR; single-molecule imaging
[2] = target: δ-type opioid receptor (DOR), rat, wild type, fluorescently tagged, expressed in the PM of CHO-K1 cells (Example 1) (rat) (UniProt P33533); experiment: distribution of colocalisation durations with WT-DOR; single-molecule imaging
[3] = target: SNAPf-DOR: rat DOR with the SNAPf tag protein at its N-terminus, expressed in the PM of CHO-K1 cells (Example 2) (rat) (UniProt P33533); experiment: single-molecule imaging, PCCF fit; copies/um2
[4] = target: SNAPf-DOR: rat DOR with the SNAPf tag protein at its N-terminus, expressed in the PM of CHO-K1 cells (Example 2) (rat) (UniProt P33533); experiment: single-molecule imaging, homodimer 2D-KD; copies/um2; + agonist
[5] = target: SNAPf-DOR: rat DOR with the SNAPf tag protein at its N-terminus, expressed in the PM of CHO-K1 cells (Example 2) (rat) (UniProt P33533); experiment: single-molecule imaging, homodimer 2D-KD; copies/um2; - agonist

- dimer lifetime (τ2) [1]: 88 ms
Substance: DORΔ22-42 (DOR N-terminal deletion mutant) (from UniProt P33533 1-21; P33533 43-372) (receptor)

- dimer lifetime (τ2) [2]: 91 ms
Substance: MORΔ32-61 (MOR N-terminal deletion mutant) (from UniProt P33535 1-31; P33535 62-398) (receptor)

- Kd [3]: 7.91 ?
- Kd [4]: 3.58 ?
- Kd [5]: 7.91 ?
Substance: SNAPf-DOR: rat DOR with the SNAPf tag protein at its N-terminus, expressed in the PM of CHO-K1 cells (Example 2) (from UniProt P33533 1-372)
